Among the data in PMC3688503 (2013) are response values, retold here.

B1: wild-type MTM1-B10 fusion protein [human] / wild-type MTMR12-GFP protein [human] (parent complex)
chain 1: MASASTSKYNSHSLENESIKRTSRDGVNRDLTEAVPRLPGETLITDKEVIYICPFNGPIKGRVYITNYRLYLRSLETDSSLILDVPLGVISRIEKMGGATSRGENSYGLDITCKDMRNLRFALKQEGHSRRDMFEILTRYAFPLAHSLPLFAFLNEEKFNVDGWTVYNPVEEYRRQGLPNHHWRITFINKCYELCDTYPALLVVPYRASDDDLRRVATFRSRNRIPVLSWIHPENKTVIVRCSQPLVGMSGKRNKDDEKYLDVIRETNKQISKLTIYDARPSVNAVANKATGGGYESDDAYHNAELFFLDIHNIHVMRESLKKVKDIVYPNVEESHWLSSLESTHWLEHIKLVLTGAIQVADKVSSGKSSVLVHCSDGWDRTAQLTSLAMLMLDSFYRSIEGFEILVQKEWISFGHKFASRIGHGDKNHTDADRSPIFLQFIDCVWQMSKQFPTAFEFNEQFLIIILDHLYSCRFGTFLFNCESARERQKVTERTVSLWSLINSNKEKFKNPFYTKEINRVLYPVASMRHLELWVNYYIRWNPRIKQQQPNPVEQRYMELLALRDEYIKRLEELQLANSAKLSDPPTSPSSPSQMMPHVQTHF
chain 2: MLGKGVVGGGGGTKAPKPSFVSYVRPEEIHTNEKEVTEKEVTLHLLPGEQLLCEASTVLKYVQEDSCQHGVYGRLVCTDFKIAFLGDDESALDNDETQFKNKVIGENDITLHCVDQIYGVFDEKKKTLFGQLKKYPEKLIIHCKDLRVFQFCLRYTKEEEVKRIVSGIIHHTQAPKLLKRLFLFSYATAAQNNTVTDPKNHTVMFDTLKDWCWELERTKGNMKYKAVSVNEGYKVCERLPAYFVVPTPLPEENVQRFQGHGIPIWCWSCHNGSALLKMSALPKEQDDGILQIQKSFLDGIYKTIHRPPYEIVKTEDLSSNFLSLQEIQTAYSKFKQLFLIDNSTEFWDTDIKWFSLLESSSWLDIIRRCLKKAIEITECMEAQNMNVLLLEENASDLCCLISSLVQLMMDPHCRTRIGFQSLIQKEWVMGGHCFLDRCNHLRQNDKEEVPVFLLFLDCVWQLVHQHPPAFEFTETYLTVLSDSLYIPIFSTFFFNSPHQKDTNMGREGQDTQSKPLNLLTVWDWSVQFEPKAQTLLKNPLYVEKPKLDKGQRKGMRFKHQRQLSLPLTQSKSSPKRGFFREETDHLIKNLLGKRISKLINSSDELQDNFREFYDSWHSKSTDYHGLLLPHIEGPEIKVWAQRYLRWIPEAQILGGGQVATLSKLLEMMEEVQSLQEKIDERHHSQQAPQAEAPCLLRNSARLSSLFPFALLQRHSSKPVLPTSGWKALGDEDDLAKREDEFVDLGDV

The experiment covers variants of B1. The experiment is described as follows: co-immunoprecipitation (anti-B10 IP, western blot quantification); overexpressed in Cos1 cells; IP with anti-B10 tag antibody; parent: 1; read off a plot. Background: In western blotting, separated proteins are transferred to a membrane and probed.
For the variant chain 1 R421Q, the response is roughly 0.92 AU.

On to chain 1 V49F, for which the response was roughly 0.05 AU.

As to chain 1 P205L, the response is roughly 0.07 AU.

For the variant chain 1 R69C, the response is roughly 0.05 AU.

Take chain 1 C375S: the response was roughly 0.92 AU.

As for chain 1 R241C, the response was roughly 1 AU.

For the variant chain 1 R184G, the response was roughly 0.05 AU.
